Experimental data: publication PMC10533564 (Communications Biology, 2023)

Columns and labels:
[1] = target: T1, sTNFR2, monomeric extracellular domains of TNFR2 obtained from etanercept (Homo sapiens, UniProt P20333); assay: SPR; antibody captured (~400 RU) on anti-human IgG Fc on a CM5 chip, sTNFR2 as analyte in twofold dilution series; PBS with 0.005% Tween 20, pH 7.4, 25 °C; 1:1 global kinetics fit; conditions: both partners purified
T1 construct: extracellular domains of TNFR2 as in etanercept; also called TNFR2 ECD; source: from etanercept (Pfizer): IdeS digestion, reduction with 2-mercaptoethylamine, purified (Protein A flow-through, SEC); not shown: Fc (human IgG1, of etanercept), C-terminal, cleaved

[2] = target: T2, tumor necrosis factor-alpha (TNFα) (UniProt P01375); assay: SPR; TNFα immobilised on a CM5 chip by amine coupling (140 RU); antibodies 10 nM or 100 nM flowed; HBS-EP+, 25 °C; conditions: both partners purified
T2 construct: tumor necrosis factor-alpha; source: bought: Peprotech #AF-200-01A (named for the reporter assay)
T2 sequence (P01375 77-233): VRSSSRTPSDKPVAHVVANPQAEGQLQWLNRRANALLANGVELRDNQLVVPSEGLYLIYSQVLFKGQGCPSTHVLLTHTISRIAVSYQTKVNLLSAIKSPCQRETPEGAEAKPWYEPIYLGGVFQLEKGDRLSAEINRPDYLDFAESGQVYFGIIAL

Binder	Kd [1] [nM]	binding result [2]	also measured
TR109 chimeric conventional IgG (antibody, V domains shown) VH: QVQLKESGPGLVAPSQSLSITCTVSGFSLTVYGVNWVRQPPGKGLEWLGMIWGDGSTAYNSALKSRLTITKDNSKTQVFLKMNSLQTDDTARYYCARDGRRYALDYWGQGTSVTVSS VL: DIVLTQSPTSLAVSLGQRATISCRASESVDSYGDSFLHWYQQKPGQPPILLIYRASNLDSGIPARFSGSGSRTDFTLTINPVEADDVATYYCQQSNEDPYTFGGGTKLEIK	5.6	–	–
TR109 cIgG (chimeric, human IgG1/kappa) (antibody, V domains shown) VH: QVQLKESGPGLVAPSQSLSITCTVSGFSLTVYGVNWVRQPPGKGLEWLGMIWGDGSTAYNSALKSRLTITKDNSKTQVFLKMNSLQTDDTARYYCARDGRRYALDYWGQGTSVTVSS VL: DIVLTQSPTSLAVSLGQRATISCRASESVDSYGDSFLHWYQQKPGQPPILLIYRASNLDSGIPARFSGSGSRTDFTLTINPVEADDVATYYCQQSNEDPYTFGGGTKLEIK	–	no binding (tested: 10 nM or 100 nM)	–
TR45 chimeric conventional IgG (antibody, V domains shown) VH: EVQLQQSGPEMEKPGASVKISCKASGYSFTGYNMNWVKQSIGKSLEWIGKIDPYYGGTDYNLRFKDKATLTVDKSSSTAYMHLSRLTSEDSAVYYCAREPNYGSNDWYFDVWGAGTTVTVSS VL: DIQVTQTTSSLSASLGDRVTISCRASQDIDNYLNWYQQRPDGTVKLLIYYTSILHSGVPSRFSGSGSRTDFSLTISSLEEEDFATYFCQQGNTLPWTFGGGTKLEFK	19	–	–
TR45 cIgG (chimeric, human IgG1/kappa) (antibody, V domains shown) VH: EVQLQQSGPEMEKPGASVKISCKASGYSFTGYNMNWVKQSIGKSLEWIGKIDPYYGGTDYNLRFKDKATLTVDKSSSTAYMHLSRLTSEDSAVYYCAREPNYGSNDWYFDVWGAGTTVTVSS VL: DIQVTQTTSSLSASLGDRVTISCRASQDIDNYLNWYQQRPDGTVKLLIYYTSILHSGVPSRFSGSGSRTDFSLTISSLEEEDFATYFCQQGNTLPWTFGGGTKLEFK	–	no binding (tested: 10 nM or 100 nM)	–
TR92 chimeric conventional IgG (antibody, V domains shown) VH: KVQLQQSGAELVKPGASVKLSCKASGYTFTESIIHWVKQRSGQGLEWIGWFYPGSDNINYNEKFKDKATLTADKSSSTVYMELTRLTSEDSAVYFCASHEGPYVYFDYWGQGTTLTVSS VL: DIVMTQSHKFMSTSVGDRVSITCKASQDVSTAVAWYQQKPGQSPKLLIYWTSTRHTGVPDRFTGSGSGTDYTLTISSVQAEDLALYYCQHHYSTPYTFGGGTKLEIQ	4	–	–
TR92 cIgG (chimeric, human IgG1/kappa) (antibody, V domains shown) VH: KVQLQQSGAELVKPGASVKLSCKASGYTFTESIIHWVKQRSGQGLEWIGWFYPGSDNINYNEKFKDKATLTADKSSSTVYMELTRLTSEDSAVYFCASHEGPYVYFDYWGQGTTLTVSS VL: DIVMTQSHKFMSTSVGDRVSITCKASQDVSTAVAWYQQKPGQSPKLLIYWTSTRHTGVPDRFTGSGSGTDYTLTISSVQAEDLALYYCQHHYSTPYTFGGGTKLEIQ	–	no binding (tested: 10 nM or 100 nM)	–
TR96 chimeric conventional IgG (antibody, V domains shown) VH: EVQLQQSGAELVKPGASVKLSCTPSGFNIKDTYMHWVKQRPEQGLEWIGRIDPANGYTEYDPKFQDKATITADTSSNTAYLQLSSLTSEDTAVYYCADTQLYYWGQGTTLTVSS VL: QIVLTQSPAIMSASLGERVTMTCTASSSVSSTYLHWYQQKPGSSPKLWIYSTSNLASGVPARFSGSGSGTSYSLTISNMEAEDAATYYCHQYHRSPLTFGAGTKLELK	0.42	–	koff [1]: 0.00024 s⁻¹; kon [1]: 580000 M⁻¹ s⁻¹
TR96 cIgG (chimeric, human IgG1/kappa) (antibody, V domains shown) VH: EVQLQQSGAELVKPGASVKLSCTPSGFNIKDTYMHWVKQRPEQGLEWIGRIDPANGYTEYDPKFQDKATITADTSSNTAYLQLSSLTSEDTAVYYCADTQLYYWGQGTTLTVSS VL: QIVLTQSPAIMSASLGERVTMTCTASSSVSSTYLHWYQQKPGSSPKLWIYSTSNLASGVPARFSGSGSGTSYSLTISNMEAEDAATYYCHQYHRSPLTFGAGTKLELK	–	no binding (tested: 10 nM or 100 nM)	–
TR94 cIgG (chimeric, human IgG1/kappa) (antibody, V domains shown) VH: QVQLQQSGAELARPGTSVKLSCKASGYTFTSYWMQWVKQTPGQGLEWIGAIYPGDGDSRYIQKFKGKATLTADKSSSTAYMQLSSLASEDSAVYYCARDGNYYAMDYWGQGTSVTVSS VL: QIVLTQSPAIMSASLGERVTITCTASSSVSSTYLHWYQQKPGSSPKLWIYSTSNLASGVPARFSGSGSGTSYSLTISSMEAEDAATYYCHQYHRSPPTFGAGTKLELK	–	no binding (tested: 10 nM or 100 nM)	–
